The assay addresses SARS-CoV-2 main protease (M^pro), commercial recombinant (rcM^pro) (SARS-CoV-2) (UniProt P0DTD1). Description: enzyme inhibition assay.

The term Ki denotes a dissociation constant, usually derived from enzyme kinetics or from competition with a known ligand. Take PPACK (D-Phe-Pro-Arg-CH2Cl) (peptide): the Ki is 160 nM.
